Results: patent US20060205037A1 (published 2006)

Biological target: T1, rat GLP-1 receptor (CHO cells transfected with the rat GLP-1 receptor) (rat, UniProt P32301 22-463)
T1 sequence (looked up): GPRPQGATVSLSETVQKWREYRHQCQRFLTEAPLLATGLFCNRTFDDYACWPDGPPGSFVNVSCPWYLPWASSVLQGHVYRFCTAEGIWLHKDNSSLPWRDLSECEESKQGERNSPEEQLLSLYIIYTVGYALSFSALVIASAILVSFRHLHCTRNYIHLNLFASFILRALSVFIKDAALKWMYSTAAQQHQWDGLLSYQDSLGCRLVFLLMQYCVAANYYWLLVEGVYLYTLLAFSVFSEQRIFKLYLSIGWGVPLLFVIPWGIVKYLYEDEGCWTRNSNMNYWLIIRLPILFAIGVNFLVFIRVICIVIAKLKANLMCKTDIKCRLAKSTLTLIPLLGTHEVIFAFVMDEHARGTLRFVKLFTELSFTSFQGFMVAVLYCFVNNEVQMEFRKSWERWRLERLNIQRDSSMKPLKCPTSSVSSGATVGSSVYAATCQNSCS
Experiment: cell-based or functional assay

B1: pREX0558: GLP-1 (7-37;A8G;G22E;K34A) fused to the N-terminus of transferrin with PEAPTD and IgG hinge linkers (other)
chain: HGEGTFTSDVSSYLEEQAAKEFIAWLVAGRGPEAPTDVEPKSSDKTHTSPPSPAPELLGGPSVPDKTVRWCAVSEHEATKCQSFRDHMKSVIPSDGPSVACVKKASYLDCIRAIAANEADAVTLDAGLVYDAYLAPNNLKPVVAEFYGSKEDPQTFYYAVAVVKKDSGFQMNQLRGKKSCHTGLGRSAGWNIPIGLLYCDLPEPRKPLEKAVANFFSGSCAPCADGTDFPQLCQLCPGCGCSTLNQYFGYSGAFKCLKDGAGDVAFVKHSTIFENLANKADRDQYELLCLDNTRKPVDEYKDCHLAQVPSHTVVARSMGGKEDLIWELLNQAQEHFGKDKSKEFQLFSSPHGKDLLFKDSAHGFLKVPPRMDAKMYLGYEYVTAIRNLREGTCPEAPTDECKPVKWCALSHHERLKCDEWSVNSVGKIECVSAETTEDCIAKIMNGEADAMSLDGGFVYIAGKCGLVPVLAENYNKADNCEDTPEAGYFAVAVVKKSASDLTWDNLKGKKSCHTAVGRTAGWNIPMGLLYNKINHCRFDEFFSEGCAPGSKKDSSLCKLCMGSGLNLCEPNNKEGYYGYTGAFRCLVEKGDVAFVKHQTVPQNTGGKNPDPWAKNLNEKDYELLCLDGTRKPVEEYANCHLARAPNHAVVTRKDKEACVHKILRQQQHLFGSNVADCSGNFCLFRSETKDLLFRDDTVCLAKLHDRNTYEKYLGEEYVKAVGNLRKCSTSSLLEACTFRRP
cAMP assay EC50 (fermentation F0191): 5.9 nM
